“Also recorded” adds a separate entry of the source.
Tests used:
I-E^k [1] = biological target: T1, I-E^k (Mus musculus, UniProt P04224+P04230); experiment: Inhibition of binding of 125I-labeled Cytochrome c (pigeon) (P88-104) to I-E^k; settings: 125I Cytochrome c (pigeon) (P88-104) bound to I-E^k; read-out: Concentration (μM) of P12-26 Required for 50 percent Inhibition
T1 sequence (P04224 26-255): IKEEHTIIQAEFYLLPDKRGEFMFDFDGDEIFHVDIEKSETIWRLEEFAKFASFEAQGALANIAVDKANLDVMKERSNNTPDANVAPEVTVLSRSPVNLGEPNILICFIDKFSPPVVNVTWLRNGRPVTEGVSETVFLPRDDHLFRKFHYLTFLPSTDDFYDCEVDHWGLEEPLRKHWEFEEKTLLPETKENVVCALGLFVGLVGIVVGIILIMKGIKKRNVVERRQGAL
T1 sequence (P04230 27-264): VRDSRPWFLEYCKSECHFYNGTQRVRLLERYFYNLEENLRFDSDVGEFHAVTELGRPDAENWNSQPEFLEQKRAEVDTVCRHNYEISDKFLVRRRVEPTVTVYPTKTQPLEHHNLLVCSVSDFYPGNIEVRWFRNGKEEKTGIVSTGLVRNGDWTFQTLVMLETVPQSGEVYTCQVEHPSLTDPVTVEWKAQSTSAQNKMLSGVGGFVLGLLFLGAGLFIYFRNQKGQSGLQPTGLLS
Text: (§1) Ia-molecules were purifed from Nonidet P-40 (NP-40) lysates of A20 (H2^d) or AKTB-1b (H2^k) cells by affinity chromatography using the following monoclonal antibodies: MK-D6 (I-A^d -specific), 10-3-6 (I-A^k -specific) specific) or 14-4-4 (I-E^d/k -specific) coupled to Sepharose 4B beads (Pharmacia Fine Chemicals, Sweden).
A gel filtration assay was used for determining the degree of association between immunogenic peptides and Ia. The assay is described in: Buus, S. et al., Proceeding of the National Academy of Sciences, U.S.A. (1986) 83:3968, the teaching of which is incorporated herein by reference. […] The Ia-peptide complexes were separated from free peptide by gel filtration and the percentage of peptide bound to Ia was calculated as the ratio of the ^125 I-labeled peptide in the void volume to the total ^125 I-labeled peptide recovered.
For the inhibition assay a dose-range of unlabeled cI P12-26 peptide was added to the incubation mixture of Ia and ^125 I-labeled peptide (600, 120, 24, ad 48 μM). The degree of association between Ia and labeled peptide was determined by gel filtration as described in Table 1. […] The concentration of inhibitory peptide required to obtain a 50 percent inhibition of binding was calculated. […]

[2] = tested on: lymph node-derived T-cells from P12-26 immune mice; experiment: Standard lymph node proliferation assay (thymidine incorporation); assay type: cell-based; settings: cultured with 10 μM P12-26
Text: The proliferation of these same cultures was not inhibited (75,000 cpm) by a monoclonal antibody, 34-1-4S, which is specific for I-E^d and which inhibits the stimulation of a hemocyanin specific, I-E^d resticted T-cell hybridoma.

I-A^d = biological target: T2, I-A^d (Mus musculus, UniProt P01921+P04228); experiment: Gel filtration binding of 125I-labeled peptide to purified Ia (I-A^d)
T2 construct: endogenous in cells
T2 sequence (P04228 24-256): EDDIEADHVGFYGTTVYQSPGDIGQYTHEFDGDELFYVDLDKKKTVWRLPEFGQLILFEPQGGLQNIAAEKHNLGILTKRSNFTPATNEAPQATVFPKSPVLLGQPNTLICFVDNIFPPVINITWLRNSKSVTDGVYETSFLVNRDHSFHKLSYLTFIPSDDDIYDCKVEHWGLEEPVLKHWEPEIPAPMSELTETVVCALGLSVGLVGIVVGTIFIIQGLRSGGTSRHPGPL
T2 sequence (P01921 28-265): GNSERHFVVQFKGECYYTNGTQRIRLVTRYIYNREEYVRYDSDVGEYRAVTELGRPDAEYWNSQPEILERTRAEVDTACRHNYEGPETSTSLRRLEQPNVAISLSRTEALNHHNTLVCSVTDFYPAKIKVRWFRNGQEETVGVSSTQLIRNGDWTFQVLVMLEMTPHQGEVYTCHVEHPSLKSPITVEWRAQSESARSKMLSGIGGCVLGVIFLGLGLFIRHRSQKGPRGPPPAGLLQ
Text: (§2) The peptide P12-26 was modified by the addition of a tyrosine residue to the N-terminus to serve as an acceptor for the ^125 I.
as §1
(§3) A gel filtration assay was used for determining the degree of association between immunogenic peptides and Ia. The assay is described in: Buus, S. et al., Proceeding of the National Academy of Sciences, U.S.A. (1986) 83:3968, the teaching of which is incorporated herein by reference. Briefly, 40 μmole of purified Ia in 1 percent NP-40/PBS was mixed with 0.2 μmole of ^125 I-labeled peptide (approximately 200,000 cpm for each experiment) and incubated for 48 hours at room temperature to allow for formation of the Ia-peptide complex. The Ia-peptide complexes were separated from free peptide by gel filtration and the percentage of peptide bound to Ia was calculated as the ratio of the ^125 I-labeled peptide in the void volume to the total ^125 I-labeled peptide recovered.

[3] = tested on: T-cell hybridoma DO-11.10; assay type: cell-based
I-E^k [4] = biological target: T1, I-E^k; experiment: Gel filtration binding of 125I-labeled peptide to purified Ia (I-E^k)
Text: as §2, §1, §3

I-A^k [5] = biological target: T3, I-A^k (Mus musculus, UniProt P01910+P06343); experiment: Inhibition of binding of 125I-labeled Lysozyme (Hen) (P46-61) to I-A^k; settings: for Competition with the lysozyme-derived peptide for binding to I-A^k (in words): up to 2500 μM
T3 construct: endogenous in cells
Text: as §1, §3
For the inhibition assay a dose-range of unlabeled cI P12-26 peptide was added to the incubation mixture of Ia and ^125 I-labeled peptide ([…] μM). The degree of association between Ia and labeled peptide was determined by gel filtration as described in Table 1. The percentage of peptide bound in the absence of inhibitors is 10.6 percent for ovalbumin (323 to 339)/I-A^d; 6.5 percent for myoglobulin 132 to 153)/I-E^d; 21.5 percent for lysozyme (46 to 61)/I-A^k; 2.5 percent for cytochrome C (88 to 104)/I-E^k. The concentration of inhibitory peptide required to obtain a 50 percent inhibition of binding was calculated. Each experiment was repeated three times.

I-A^k [6] = biological target: T3, I-A^k; experiment: Gel filtration binding of 125I-labeled peptide to purified Ia (I-A^k)
Text: as §2, §1, §3

[7] = tested on: monoclonal antibody B3.11; experiment: Inhibition of monoclonal antibody B3.11 binding to BSA conjugated to P12-26; settings: BSA conjugated to P12-26 adsorbed to microwells; inhibitors listed in order of decreasing inhibition
Text: Antibody recognition of (NANP)3-12-26 by monoclonal antibodies was studied. The antigen, bovine serum albumin (BSA) conjugated to P12-26 was adsorbed to microwells and horseradish peroxidase (HRP) labeled antibody specific for P12-26 added. In the absence of (NANP)3-12-26 or in the presence of P12-26LF, there is no inhibition of monoclonal antibody B3.11 binding.

[8] = tested on: Lymph node-derived T-cell; experiment: Lymph node-derived T-cell proliferation in mice immunized with (NANP)3-12-26; assay type: in vivo; settings: eight days after immunization with (NANP)3-12-26
Method: For T-cell proliferation studies 100 μg of (NANP)3-12-26 emulsified in CFA was injected in the base of the tail and also food pad of mice on day 0. […] Cells were seeded at 8×10^5 /well flat bottom microtiter plates 1/2 volume in 0.1 ml RPMI containing 10% FCS, […], penicillin, streptomycin and antigen. On day 2, 1 μCi of ^3 H thymidine (ICN) was added to triplicate or duplicate cultures. 16 hr later cells were harvested and incorporated ^3 H was assayed by scintillation counter.
All T-cell activity is directed to the Class II binding sequence.

P12-26: derived from the cI protein of bacteriophage lambda (residues 12-26)
IC50 (I-E^k [1]): 300 µM | Proliferation (thymidine incorporation) [2]: 68,000 cpm | Binding to the I-A^d molecule (in words) (I-A^d): able to bind to both molecules as expected | Stimulation of DO-11.10 [3]: Neither of these peptides can stimulate DO-11.10 on its own | Inhibition of ovalbumin-specific T-cell activation (DO-11.10) ([3]; Ova (P324-336) as stimulator, A20 presenting cells, peptide at 50 μM, 24 hrs): act as inhibitors | Binding to the I-E^k molecule (in words) (I-E^k [4]): able to bind to both molecules as expected | IC50 (I-A^k [5]; 125I Lysozyme (Hen) (P46-61) bound to I-A^k, read-out: Concentration (μM) of P12-26 Required for 50 percent Inhibition): > 2500 µM | Competition with the lysozyme-derived peptide for binding to I-A^k (in words) (I-A^k [5]): is not observed | Competition with the lysozyme-derived peptide for binding to I-A^k (in words) (I-A^k [5]; listed as P1226): No inhibition of binding was detected | Binding to the I-A^k molecule (in words) (I-A^k [6]): not bound; also recorded: inability of P12-26 to bind | Inhibition of monoclonal antibody B3.11 binding [7]: Inhibition is observed | T-cell proliferation by thymidine incorporation on culture with peptide [8]: T-cell proliferation as assayed by thymidine incorporation was seen

Source: patent publication US5019384A, “Immunonodulating compositions and their use” (Massachusetts Institute of Technology, priority 1989, dated 1991)
